In US20060093670A1, “Sustained-release composition process for producing the same and preparation thereof” (priority 2002, published 2006):

How the values were obtained:
[1] = prior-art two-component apatite particles; cited from earlier work
[2] = Effect of Zn concentration on sustained release of IFN-HAp preparation (IFN α blood level, Example 3); format: in vivo, ddy mouse; settings: IFN α/HSA/CS in HAp, freeze-dried, subcutaneous, 4 hours and 1 to 7 days, FIG. 3
Experimental: 0.06 ml of 0.937 mg/ml IFN α, 0.3 ml of 20 mg/ml HSA, 0.03 ml of 20 mg/ml CS, and 1.22 ml of H2O were added to prepare a solution. 200 mg of HAp sintered at 180° C. was added on this solution. A protein was entrapped in HAp by stirring, and then 10 ml of H2O was added. The mixture was lightly stirred and centrifuged at 3,000 rpm for five minutes.
The deposit was freeze-dried and divided in two. 1 ml of a 20 mM Zn(CH3COO)2/5% mannitol solution was added to one division, while 1 ml of a 5 mM Zn(CH3COO)2/5% mannitol solution was added to the other division.
As a control, 0.015 ml of 0.937 mg/ml IFN α, 0.075 ml of 20 mg/ml HSA, 0.66 ml of H2O and 0.25 ml of 20% mannitol were added to prepare an IFN α (free) solution.
(§1) 0.7 ml of the sample prepared above was subcutaneously administered to a seven-week-old male ddy mouse (weight: 31 to 33 g, SLC, Japan). Four hours and one to seven days after the administration, blood was collected from the orbit of the mouse. The IFN α concentration in this blood was determined using an ELISA kit (Biosource).

[3] = Percent elution of IFN entrapped onto HAP in PBS containing 20% FCS; format: physicochemical; settings: 37° C., 16 hours
Experimental: 45 mg of porous hydroxyapatite (HAP) was accurately weighed. 30 μg of IFN from a 2.4 mg/ml interferon a (IFN) solution was added thereto, and the mixture was allowed to stand for 10 minutes. […] This dispersion was washed by addition of 1.5 ml of water. When IFN in the washed solution was quantitatively determined, IFN was not detected. Specifically, all IFN was confirmed to be entrapped on HAP. In this manner, a microparticle preparation on which IFN as a protein was entrapped could be obtained without using an organic solvent. After the washing, 20 ml of a PBS solution containing FCS in an amount of 20% was added to the resulting powder, and the mixture was shaken at 37° C. for 16 hours. IFN eluted in the supernatant liquid was quantitatively determined to calculate the percent elution.

[4] = IFN α blood level after subcutaneous administration of IFN α-HAp preparation (Example 2); format: in vivo, ddy mouse; settings: IFN α with HSA, chondroitin sulfate and Zn(CH3COO)2 in HAp sintered at 180° C., 4 hours and 1 to 10 days, ELISA, FIG. 2
Experimental: 0.854 ml of 225 μg/ml IFN α (interferon α, Sumitomo Pharmaceuticals) and 1.2 ml of 20 mg/ml HSA were mixed to prepare a protein-mixed solution. 0.856 ml of the protein-mixed solution was mixed with 200 mg of HAp sintered at 180° C., and the mixture was stirred to entrap a protein in HAp. 0.05 ml of 20 mg/ml chondroitin sulfate (CS, from Wako), 0.074 ml of H2O, and 0.02 ml of 1 M Zn(CH3COO)2 were sequentially added thereto. The mixture was centrifuged at 15,000 rpm for five minutes. 2 ml of a 20 mM Zn(CH3COO)2/5% mannitol solution was added to the deposit to prepare a sample.
As a control, 0.644 ml of H2O and 0.5 ml of 20% mannitol were added to 0.856 ml of an IFN α-containing protein-mixed solution to prepare an IFN α (free) solution.
as §1, with “0.5” for “0.7”, “an eight-week-old” for “a seven-week-old”, “33” for “31”, “40” for “33”, “ten” for “seven”

[5] = Entrapment of IFN on HAP (IFN in the washed solution); format: physicochemical; settings: 30 μg IFN on 45 mg HAP, 20 mM zinc acetate, washed with 1.5 ml water
Experimental: 45 mg of porous hydroxyapatite (HAP) was accurately weighed. 30 μg of IFN from a 2.4 mg/ml interferon a (IFN) solution was added thereto, and the mixture was allowed to stand for 10 minutes. Then, 1 ml of a 20 mM/1 ml zinc acetate solution was added thereto, and the mixture was shaken for 30 minutes. This dispersion was washed by addition of 1.5 ml of water. When IFN in the washed solution was quantitatively determined, IFN was not detected. Specifically, all IFN was confirmed to be entrapped on HAP. In this manner, a microparticle preparation on which IFN as a protein was entrapped could be obtained without using an organic solvent. After the washing, 20 ml of a PBS solution containing FCS in an amount of 20% was added to the resulting powder, and the mixture was shaken at 37° C. for 16 hours. IFN eluted in the supernatant liquid was quantitatively determined to calculate the percent elution.

[6] = PC-BDNF blood level after subcutaneous administration of PC-BDNF-HAp preparation; format: in vivo, ddy mouse; settings: PC-BDNF in HAp sintered at 180° C. with HSA and 5 mM Zn(CH3COO)2/5% mannitol, 2 hours to 4 days, ELISA, FIG. 1
Experimental: 66 μl of a 4.54 mg/ml PC-BDNF (lecithinized BDNF) solution was added to 20 mg of porous hydroxyapatite microparticles (HAp) sintered at 180° C., and the mixture was stirred using a vortex mixer for one minute. 434 μl of a 0.1% HSA solution was added thereto, and the mixture was stirred again for one minute. The mixture was allowed to stand for three minutes, and then centrifuged at 1,000 rpm for three minutes to remove the supernatant liquid. 500 μl of a 5 mM Zn(CH3COO)2/5% mannitol solution was added to the deposit, and the mixture was stirred to prepare a sample. As a control, a sample in which 66 μl of a 4.54 mg/ml PC-BDNF solution was mixed with 434 μl of 5% mannitol was also prepared. 500 μl of each sample was subcutaneously administered to a six-week-old male ddy mouse. Two hours, seven hours, 17 hours, one day, two days, and four days after the administration, blood was collected from the orbit to determine the PC-BDNF blood level using an ELISA kit (Promega).

[7] = In vitro release test of G-CSF from HAp in PBS, embolized versus not embolized; format: physicochemical; settings: embolized (HSA, CaCl2, then Na2CO3) versus not embolized, room temperature, ELISA, FIG. 4
Experimental: 100 μl of a preliminarily mixed solution of G-CSF (3 μg/ml), HSA (30 μg/ml), and CaCl2 (280 mg/ml) was added to 50 mg of HAp sintered at 180° C. The mixture was stirred using a vortex mixer for three minutes, allowed to stand for five minutes, and freeze-dried. 100 μl of a 220 mg/ml Na2CO3 solution was added to the resulting particles, and the mixture was stirred using a vortex mixer for three minutes. After further addition of 100 μl of water, the mixture was lightly stirred. A part of the mixture was collected for ELISA determination. The remaining part was centrifuged at 1,000 rpm for three minutes to collect the supernatant liquid. 2 ml of PBS was added to the deposit, and the mixture was lightly shaken at room temperature. After 0 hour and 0.5 hour, respectively, the supernatant liquid was collected. Further, 10 ml of PBS was added to the deposit, and the mixture was shaken at room temperature. After 0 hour and 0.5 hour, respectively, the supernatant liquid was collected. The final deposit and the supernatant liquids obtained on the way were subjected to determination using an ELISA kit (IBL). The final deposit was dissolved in 1% BSA/Tris-HCl (pH 5) and used for the ELISA determination. The results are shown in FIG. 4-A. 200 μl of a 1.5 μg/ml G-CSF solution was added to 50 mg of HAp to fill the pores, and 2 ml of PBS was added further. The same release test was conducted.

[8] = Adsorption of G-CSF on hydroxyapatite preliminarily treated with zinc acetate; format: physicochemical; settings: for Amount of adsorbed G-CSF / Amount of free G-CSF: 10 mg hydroxyapatite bound with zinc
Experimental: Then, the following procedure was conducted to attempt adsorption of zinc on hydroxyapatite particles and adsorption of G-CSF on the particles. 10 mg of hydroxyapatite was suspended in 200 μl of zinc acetate (5 mg/ml). The suspension was allowed to stand for 10 minutes at room temperature, and then centrifuged at 10,000 rpm for 10 minutes to discard the supernatant liquid. The precipitate was suspended in 500 μl of purified water. The suspension was allowed to stand for 10 minutes at room temperature, and then centrifuged at 10,000 rpm for 10 minutes to discard the supernatant liquid. After the sediment was suspended and centrifuged again, the supernatant liquid was discarded. This precipitate was suspended in 0.5 ml of a 200 μg/ml or 1,000 μg/ml G-CSF solution. The suspension was allowed to stand for 10 minutes, and then centrifuged at 10,000 rpm for 10 minutes. The amount of G-CSF in the supernatant liquid was determined by an ELISA method. Further, G-CSF entrapped in hydroxyapatite was eluted from the precipitate using 0.1 M EDTA and a 1% HAS solution, and the eluate was centrifuged. Then, the G-CSF concentration in the supernatant liquid was determined by an ELISA method to determine the amount of G-CSF adsorbed on hydroxyapatite.

[9] = Adsorption of G-CSF on hydroxyapatite particles without zinc; format: physicochemical; settings: 40 mg hydroxyapatite particles, 100 μl of G-CSF solution (100 μg/ml), no zinc; eluted with pH 4 acetic acid buffer; ELISA
Experimental: 40 mg of hydroxyapatite particles were immersed in 100 μl of a G-CSF solution (100 μg/ml) for 10 minutes. Then, 900 μl of purified water was added, and the mixture was stirred and centrifuged. Then, the supernatant liquid was discarded. Purified water was added to the precipitate again, and the mixture was stirred and centrifuged to remove the excessive G-CSF.
The precipitate was suspended in a pH 4 acetic acid buffer to elute G-CSF. After centrifugation, the amount of G-CSF in the supernatant liquid was determined by ELISA to determine the amount of G-CSF adsorbed. Almost no adsorption was observed (0.1 μg or less).

Molecule: hGH: human growth hormone, on prior-art apatite particles
- Amount of hGH adsorbed on the apatite particles (entrapped amount) [1]: ≤ 1%

Molecule: IFN α
- IFN α blood level ([2]; zinc 5 mM): sufficiently increased, but was reduced comparatively rapidly
- IFN α blood level ([2]; zinc 20 mM): not sufficiently increased, but IFN α was released slowly for a long time
- Eluted IFN (%) ([3]; Zinc acetate 0 mM): 92%
- Eluted IFN (%) ([3]; Zinc acetate 20 mM): 87%
- IFN α concentration in blood, sustained-release effect [4]: excellent sustained-release effect
- IFN in the washed solution [5]: not detected

B1: PC-BDNF: lecithinized BDNF; tested entrapped in HAp with HSA and zinc acetate (PC-BDNF-HAp preparation) (conjugate, UniProt P23560 19-247, looked up)
Neurotrophic factor BDNF …: APMKEANIRGQGGLAYPGVRTHGTLESVNGPKAGSRGLTSLADTFEHVIEELLDEDQKVRPNEENNKDADLYTSRVMLSSQVPLEPPLLFLLEEYKNYLDAANMSMRVRRHSDPARRGELSVCDSISEWVTAADKKTAVDMSGGTVTVLEKVPVSKGQLKQYFYETKCNPMGYTKEGCRGIDKRHWNSQCRTTQSYVRALTMDSKKRIGWRFIRIDTSCVCTLTIKRGR
modifications: lecithinized; entrapped in hydroxyapatite
- PC-BDNF blood level, sustained-release effect [6]: excellent sustained-release effect

B2: G-CSF: G-CSF protein loaded into or adsorbed on hydroxyapatite microparticles (protein, UniProt P09919 31-207, looked up)
Granulocyte …: TPLGPASSLPQSFLLKCLEQVRKIQGDGAALQEKLVSECATYKLCHPEELVLLGHSLGIPWAPLSSCPSQALQLAGCLSQLHSGLFLYQGLLQALEGISPELGPTLDTLQLDVADFATTIWQQMEELGMAPALQPTQGAMPAFASAFQRRAGGVLVASHLQSFLEVSYRVLRHLAQP
modifications: adsorbed on hydroxyapatite microparticles
- Release of G-CSF from HAp [7]: release was remarkably suppressed
- Amount of adsorbed G-CSF ([8]; total amount of G-CSF 100 μg): 86.4 µg
- Amount of free G-CSF ([8]; total amount of G-CSF 100 μg): 0.4 µg
- Amount of adsorbed G-CSF ([8]; total amount of G-CSF 500 μg): 400.0 µg
- Amount of free G-CSF ([8]; total amount of G-CSF 500 μg): 90.0 µg
- Maximum amount of G-CSF adsorbed ([8]; on 10 mg of hydroxyapatite): 400 µg
- Amount of G-CSF adsorbed [9]: ≤ 0.1 µg
